In data set [1] the target is T1, PbfF (2-amino-1-hydroxyethylphosphonate racemase; HAEP racemase) (Mesorhizobium plurifarium, UniProt A0A090EUR6).
T1 construct: full-length, codon-optimized synthetic gene in pET24-C-His-tag (NdeI/NotI), C-terminal His tag kept; E. coli Tuner (DE3)
In words: continuous coupled assay (PbfA, PhnX, NADP-dependent ADH), NADPH decrease at […] nm. The format is biochemical.

For data set [2], the target named is 2-amino-1-hydroxyethylphosphonate racemase (PbfF) from Mesorhizobium plurifarium (Mesorhizobium plurifarium). Kind of data set: SEC; analytical SEC, data not shown; 50 uL of 108 uM PbfF (monomer concentration) on Superdex 200 Increase 5/150 GL; 50 mM Tris, 200 mM NaCl, pH 7.9; 0.3 mL/min; calibrated with proteins of known molecular mass.
The test system of data set [3] is T2, NC(=O)c1ccc[n+]([C@@H]2O[C@H](COP(=O)(O)OP(=O)(O)OC[C@H]3O[C@@H](n4cnc5c(N)ncnc54)[C@H](O)[C@@H]3O)[C@@H](O)[C@H]2O)c1.
T2 construct: full-length, codon-optimized synthetic gene in pET24-C-His-tag (NdeI/NotI), C-terminal His tag kept; E. coli Tuner (DE3)
Kind of data set: purified protein. In kind it is biochemical, Mesorhizobium plurifarium. Particulars: 1 mM S-HAEP, 5 mM MgCl2, 50 mM TEA-HCl pH 8.0, 25 °C, exogenous NAD+, varied: cofactor.

The next data set concerns T3, NC[C@@H](O)P(=O)(O)O.
T3 construct: full-length, codon-optimized synthetic gene in pET24-C-His-tag (NdeI/NotI), C-terminal His tag kept; E. coli Tuner (DE3)
In words: purified protein. As to conditions: 1 mM NAD+, 5 mM MgCl2, 50 mM TEA-HCl pH 8.0, 25 °C, S-HAEP to R-HAEP. The format is biochemical, Mesorhizobium plurifarium.

T1 sequence (A0A090EUR6 1-336): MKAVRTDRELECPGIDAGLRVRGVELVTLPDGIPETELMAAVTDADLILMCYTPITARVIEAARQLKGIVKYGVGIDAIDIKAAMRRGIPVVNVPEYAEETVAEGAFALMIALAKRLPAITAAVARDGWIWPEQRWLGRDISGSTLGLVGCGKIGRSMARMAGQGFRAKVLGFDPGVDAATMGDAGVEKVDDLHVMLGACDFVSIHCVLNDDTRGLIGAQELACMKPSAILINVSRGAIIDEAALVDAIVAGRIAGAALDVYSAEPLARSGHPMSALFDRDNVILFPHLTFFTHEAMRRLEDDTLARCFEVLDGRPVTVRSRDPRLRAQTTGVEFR

As usually defined, the inhibition is the change of the read-out against control, counted positive when it falls. Higher therefore signals strong suppression. `NC(=O)C1=CN([C@@H]2O[C@H](COP(=O)(O)OP(=O)(O)OC[C@H]3O[C@@H](n4cnc5c(N)ncnc54)[C@H](O)[C@@H]3O)[C@@H](O)[C@H]2O)C=CC1` [NADH] came in with an inhibition at 60 µM in data set [1] of approximately 50%.

The stoichiometry N is the number of molecules, sites or subunits per partner or assembly. In data set [2], “2-amino-1-hydroxyethylphosphonate racemase (PbfF) from Mesorhizobium plurifarium (enzyme)” registered a stoichiometry N of 2. In general, Km refers to the substrate concentration at which the rate is half of its maximum. A word on the kcat: it is the number of substrate molecules converted per active site and unit of time at saturation. In data set [3], “PbfF (2-amino-1-hydroxyethylphosphonate racemase; HAEP racemase) (Mesorhizobium plurifarium)” displayed a K0.5 of 200 µM. For the same compound, in the data set with NC[C@@H](O)P(=O)(O)O, the Km stood at 530 µM and the turnover number (kcat) stood at 6.6 s⁻¹.
